Laboratory results as given in US12042530B2, “Target peptides for immunotherapy and diagnostics” (University of Virginia Patent Foundation, priority 2012, dated 2024).
Non-standard residues stand in square brackets, D forms with d. No end group written: not given here. pT = C[C@@H](OP(=O)(O)O)[C@H](N)C(=O)O; pS = N[C@@H](COP(=O)(O)O)C(=O)O

How the values were obtained:
HLA-B*0702 = target: T1, HLA-B*0702 (Homo sapiens, UniProt P01889); assay: Phosphopeptides presented in association with class I molecules (HLA-B*0702) on cancer cells: melanoma and/or leukemia; design: key: Melanoma (M); Leukemia (L); L/M: Melanoma (M) and/or Leukemia (L); conditions: cancer type on which the HLA-B*0702 phosphopeptide is presented
T1 construct: endogenous in cells; host or cells: melanoma and/or leukemia cells

[1] = target: T2, HLA-B*0702 (HLA-B7) peptide complexes (Homo sapiens, UniProt P01889); assay: HLA-B*0702 phosphopeptides associated with leukemia samples (isolation of HLA-associated peptides); conditions: for Copies/cell class, ALL1: acute lymphoblastic leukemia sample ALL1; for Copies/cell class, B Cell: healthy B cells; for Copies/cell class, T Cell: healthy T cells; for Copies/cell class, HCL1: hairy cell leukemia sample HCL1
T2 construct: endogenous in cells; host or cells: JY B-lymphoblastoid line; primary ALL, CLL, HCL, AML samples; bone marrow; healthy B and T cells
Source text: To identify naturally processed tumor-associated phosphopeptides, HLA-A*0201 (HLA-A2) and HLA-B*0702 (HLA-B7) peptide complexes from four (4) chronic lymphocytic leukemia (CLL) tumor samples, a mantle cell lymphoma sample (MCL), one acute lymphoblastic leukemia (ALL), and an acute myeloid leukemia (AML) sample, in addition to healthy splenic T and B-cells and the cultured lymphoblastoid cell line JY were isolated. These efforts yielded 10 HLA-A2-restricted and 86 HLA-B7-restricted phosphopeptide antigens (see Tables 6 and 7).
All cell lines were grown at 37° C. with 5% CO2 in growth medium consisting of RPMI 1640 supplemented with 10% FCS and two mM L-glutamine. Blood or leukapheresis samples were taken from patients with high-burden leukemia in heparin. Tumor cells were recovered by layering the blood over density gradient (Ficoll) and collecting the tumor layer following centrifugation. The tumor was washed in tris-buffered saline (TBS). The purity of the tumor was assessed using flow cytometry and was >98% pure in all cases. For healthy T and B-cell populations, a normal spleen sample processed and tonsil sample was collected and lymphocytes released through mechanical disruption. Mononuclear cells were isolated using a density gradient and 10^9 T cells isolated using anti-CD19 or anti-CD3 microbeads (Miltenyi Biotec Inc., Auburn, California, United States of America) with purity >98% were obtained. Bone marrow sample was obtained from an elective orthopedic procedure and red cell-depleted using hypotonic lysis. This sample was not processed further.
Class I MHC molecules were immunoaffinity purified from the JY cell line or from primary tumor samples, and their associated peptides were extracted as previously described in Zarling et al., 2006. Approximately 1.2-14×10^9 cells were lysed in a solution containing 20 mM Tris-HCl (pH 8.0), 150 mM NaCl, 1% CHAPS, one mM PMSF, five μg/mL aprotinin, 10 μg/mL leupeptin, 10 μg/mL pepstatin A, 1 μg/ml calyculin A, and phosphatase inhibitor (cocktails I and II; Sigma-Aldrich). The mixture was subjected to centrifugation and the resulting supernatant was passed over protein A sepharose pre-loaded with the HLA-A2-specific antibody BB7.2 or HLA-B7-specific antibody MEL Peptides were eluted from the purified class I MHC molecules with 10% acetic acid.

Substance	L/M (HLA-B*0702)	other results
266 (APRKG[pS]FSALM; listed as Homo sapiens) [compound 266]	M	
267 (APRRY[pS]SSL; listed as Homo sapiens) [compound 267]	L/M	Copies/cell class, AML1 [1]: 1 (1 indicates <1 copy/cell)
268 (APR[pS]PPPSRP; listed as Homo sapiens) [compound 268]	M	
269 (EPKRR[pS]ARL; listed as Homo sapiens) [compound 269]	L	Copies/cell class, AML1 [1]: 1 (1 indicates <1 copy/cell)
270 (EPR[pS]PSHSM; listed as Homo sapiens) [compound 270]	L	Copies/cell class, AML1 [1]: 1 (1 indicates <1 copy/cell)
271 (FPH[pS]LLSVI; listed as Homo sapiens) [compound 271]	M	
272 (FRR[pS]PTKSSL; listed as Homo sapiens) [compound 272]	L	Copies/cell class, AML1 [1]: 2 (2 indicates 1-5 copies/cell)
273 (FRR[pS]PTKSSLDY; listed as Homo sapiens) [compound 273]	L	Copies/cell class, AML1 [1]: 4 (4 indicates >25 copies per cell)
274 (FSI[pS]PVRL; listed as Homo sapiens) [compound 274]	L	Copies/cell class, ALL1 [1]: 4 (4 indicates >25 copies per cell); Copies/cell class, B Cell [1]: 2 (2 indicates 1-5 copies/cell); Copies/cell class, T Cell [1]: 2 (2 indicates 1-5 copies/cell)
275 (GAQPGRH[pS]V; listed as Homo sapiens) [compound 275]	M	
276 (GPRSA[pS]LL[pS]L; listed as Homo sapiens) [compound 276]	L	
277 (GPRSASLL[pS]L; listed as Homo sapiens) [compound 277]	M	Copies/cell class, AML1 [1]: 4 (4 indicates >25 copies per cell)
278 (GPR[pS]ASLLSL; not fully specified; listed as Homo sapiens) [compound 278]	M	Copies/cell class, AML1 [1]: 3 (3 indicates 6-25 copies per cell)
279 (HPR[pS]PTPTL; listed as Homo sapiens) [compound 279]	M	
280 (HPRSP[pT]PTL; listed as Homo sapiens) [compound 280]	M	
281 (KAR[pS]PGRAL; listed as Homo sapiens) [compound 281]	M	
282 (KPA[pS]PARRL; listed as Homo sapiens) [compound 282]	L	Copies/cell class, CLL2 [1]: 1 (1 indicates <1 copy/cell); Copies/cell class, JY [1]: 1 (1 indicates <1 copy/cell); Copies/cell class, ALL1 [1]: 1 (1 indicates <1 copy/cell); Copies/cell class, HCL1 [1]: 1 (1 indicates <1 copy/cell)
283 (KPA[pS]PKFIVTL; listed as Homo sapiens) [compound 283]	L	Copies/cell class, AML1 [1]: 2 (2 indicates 1-5 copies/cell)
284 (KPPH[pS]PLVL; listed as Homo sapiens) [compound 284]	L	Copies/cell class, ALL1 [1]: 4 (4 indicates >25 copies per cell); Copies/cell class, T Cell [1]: 2 (2 indicates 1-5 copies/cell)

Substance	L/M (HLA-B*0702)	other results
285 (KPP[pS]PEHQSL; listed as Homo sapiens) [compound 285]	L	Copies/cell class, ALL1 [1]: 1 (1 indicates <1 copy/cell)
286 (KPP[pS]PSPIEM; listed as Homo sapiens) [compound 286]	L	
287 (KPP[pT]PGASF; listed as Homo sapiens) [compound 287]	L	Copies/cell class, ALL1 [1]: 3 (3 indicates 6-25 copies per cell); Copies/cell class, B Cell [1]: 1 (1 indicates <1 copy/cell); Copies/cell class, T Cell [1]: 2 (2 indicates 1-5 copies/cell)
288 (KPPYRSH[pS]L; listed as Homo sapiens) [compound 288]	L	Copies/cell class, AML1 [1]: 1 (1 indicates <1 copy/cell); Copies/cell class, CLL2 [1]: 1 (1 indicates <1 copy/cell); Copies/cell class, JY [1]: 2 (2 indicates 1-5 copies/cell); Copies/cell class, ALL1 [1]: 2 (2 indicates 1-5 copies/cell); Copies/cell class, HCL1 [1]: 2 (2 indicates 1-5 copies/cell)
289 (KPQTRGK[pT]F; listed as Homo sapiens) [compound 289]	L	Copies/cell class, ALL1 [1]: 1 (1 indicates <1 copy/cell); Copies/cell class, HCL1 [1]: 1 (1 indicates <1 copy/cell)
290 (KPRPPPL[pS]P; listed as Homo sapiens) [compound 290]	M	
291 (KPR[pS]PDHVL; listed as Homo sapiens) [compound 291]	L	Copies/cell class, CLL2 [1]: 1 (1 indicates <1 copy/cell); Copies/cell class, CLL4 ([1]; CLL4): 1 (1 indicates <1 copy/cell); Copies/cell class, ALL1 [1]: 1 (1 indicates <1 copy/cell); Copies/cell class, HCL1 [1]: 1 (1 indicates <1 copy/cell)
292 (KPR[pS]PPRAL; listed as Homo sapiens) [compound 292]	L/M	
293 (KPR[pS]PPRALV; listed as Homo sapiens) [compound 293]	M	
294 (KPR[pS]PPRALVL; listed as Homo sapiens) [compound 294]	M	
298 (LPIFSRL[pS]I; listed as Homo sapiens) [compound 298]	L	
299 (LPK[pS]PPYTAF; listed as Homo sapiens) [compound 299]	M	
300 (LPRGS[pS]PSVL; listed as Homo sapiens) [compound 300]	M	
301 (MPRQP[pS]ATRL; listed as Homo sapiens) [compound 301]	M	
311 (RPA[pT]PTSQF; listed as Homo sapiens) [compound 311]	M	
316 (RPI[pS]PGLSY; listed as Homo sapiens) [compound 316]	L	
326 (RPRG[pS]QSLL; listed as Homo sapiens) [compound 326]	M	
329 (RPRR[pS]STQL; listed as Homo sapiens) [compound 329]	M	
332 (RPRSL[pS]SPTVTL; listed as Homo sapiens) [compound 332]	M	

Substance	L/M (HLA-B*0702)	other results
335 (RPR[pS]PPPRAP; listed as Homo sapiens) [compound 335]	M	
340 (RPRPV[pS]PSSL; listed as Homo sapiens) [compound 340]	L	
341 (RPSGRRE[pS]L; listed as Homo sapiens) [compound 341]	M	
345 (RPS[pT]PKSDSEL; listed as Homo sapiens) [compound 345]	L	
353 (RRL[pS]GPLHTL; listed as Homo sapiens) [compound 353]	M	
354 (RRP[pS]YTLGM; listed as Homo sapiens) [compound 354]	M	
355 (RR[pS][pS]FLQVF; listed as Homo sapiens) [compound 355]	M	
357 (RR[pS]SQSWSL; listed as Homo sapiens) [compound 357]	M	
362 (RSR[pS]PRPAL; listed as Homo sapiens) [compound 362]	M	
364 (RTF[pS]PTYGL; listed as Homo sapiens) [compound 364]	M	
365 (RTR[pS]PSPTL; listed as Homo sapiens) [compound 365]	M	
369 (SPFKRQL[pS]L; listed as Homo sapiens) [compound 369]	M	
372 (SPK[pS]PTAAL; listed as Homo sapiens) [compound 372]	M	
373 (SPRER[pS]PAL; listed as Homo sapiens) [compound 373]	M	
375 (SPRR[pS]RSI[pS]L; listed as Homo sapiens) [compound 375]	L/M	
380 (SPRTPV[pS]PVKF; listed as Homo sapiens) [compound 380]	M	
381 (SPR[pT]PV[pS]PVKF; listed as Homo sapiens) [compound 381]	M	
384 (SPVVHQ[pS]L; listed as Homo sapiens) [compound 384]	M	
390 (YPS[pS]PRKL; listed as Homo sapiens) [compound 390]	M	
